In patent US20120276102A1 (Pfizer, published 2012):

T1: human gamma (γ) common chain expressed on CHO cells (human, UniProt P31785 23-369)
T1 construct: whole, on cells; Control protein; also called human IL-2R-γ common subunit; human γ-common
T1 sequence (looked up): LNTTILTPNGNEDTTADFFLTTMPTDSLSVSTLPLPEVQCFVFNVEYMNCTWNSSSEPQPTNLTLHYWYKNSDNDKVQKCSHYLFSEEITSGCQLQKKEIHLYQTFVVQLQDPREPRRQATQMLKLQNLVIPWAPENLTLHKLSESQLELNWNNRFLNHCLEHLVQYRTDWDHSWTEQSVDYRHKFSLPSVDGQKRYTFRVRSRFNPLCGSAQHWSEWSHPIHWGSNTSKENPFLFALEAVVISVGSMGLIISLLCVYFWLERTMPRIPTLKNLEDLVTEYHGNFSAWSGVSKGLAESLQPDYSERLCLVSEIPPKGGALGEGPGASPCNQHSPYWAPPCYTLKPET

T2: human IL-2Rβ (human, UniProt P14784 27-239)
T2 sequence (looked up): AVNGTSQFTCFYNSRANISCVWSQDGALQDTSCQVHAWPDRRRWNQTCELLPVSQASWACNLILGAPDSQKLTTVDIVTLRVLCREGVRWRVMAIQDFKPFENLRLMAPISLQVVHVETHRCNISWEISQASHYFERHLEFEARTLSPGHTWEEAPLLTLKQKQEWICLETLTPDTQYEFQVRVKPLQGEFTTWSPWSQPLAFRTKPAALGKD


Tests used:
[1] = target: T1, human gamma (γ) common chain expressed …; assay: cell ELISA, CHO cells
Procedure: (§1) A subset of binding proteins was tested for binding to rat, cynomolgus monkey, human IL-21R, or human IL-2R-γ common subunit expressed transiently on the surfaces of CHO-PA-Dukx cells. Cells were transfected 48 hr prior to the assay. On the day of the assay, cells were washed gently 5× in PBS containing 0.9 mM CaCl₂ and 0.45 mM MgCl₂ (PBS/CaMg) on an automated plate washer (Titertek, Huntsville, Ala.), and blocked for 1 hr at RT in PBS/CaMg/5% nonfat dry milk. Conditioned media from transiently expressed anti-IL-21R IgGs were serially diluted in blocking buffer and added to the cells in the blocked plates for 1 hr at RT. Cells were washed 5× with PBS/CaMg and then incubated with horseradish peroxidase-conjugated anti-human IgG for 1 hr at RT. Cells were then washed 10× in PBS/CaMg and all of the wash buffer was removed. Cells were incubated with 100 μl TMB until the color reaction reached saturation, stopped with 100 μl of 0.18 M H₂SO₄, and read at A450 on a Perkin Elmer ENVISION™ plate reader.

[2] = target: T3, cynomolgus monkey IL-21R expressed on cells (cynomolgus monkey, UniProt G7Q0S8 41-559); assay: cell ELISA, CHO cells
T3 construct: whole, on cells
Procedure: as §1

[3] = target: T4, rat IL-21R expressed on cells (rat); assay: cell ELISA, CHO cells
T4 construct: whole, on cells
Procedure: as §1

[4] = target: T5, human IL-21R expressed on cells (human, UniProt Q9HBE5 20-538); assay: cell ELISA, CHO cells
T5 construct: also called human IL-21R-BaF3; human IL-21R-TF1
T5 sequence (Q9HBE5 20-538 limits assumed): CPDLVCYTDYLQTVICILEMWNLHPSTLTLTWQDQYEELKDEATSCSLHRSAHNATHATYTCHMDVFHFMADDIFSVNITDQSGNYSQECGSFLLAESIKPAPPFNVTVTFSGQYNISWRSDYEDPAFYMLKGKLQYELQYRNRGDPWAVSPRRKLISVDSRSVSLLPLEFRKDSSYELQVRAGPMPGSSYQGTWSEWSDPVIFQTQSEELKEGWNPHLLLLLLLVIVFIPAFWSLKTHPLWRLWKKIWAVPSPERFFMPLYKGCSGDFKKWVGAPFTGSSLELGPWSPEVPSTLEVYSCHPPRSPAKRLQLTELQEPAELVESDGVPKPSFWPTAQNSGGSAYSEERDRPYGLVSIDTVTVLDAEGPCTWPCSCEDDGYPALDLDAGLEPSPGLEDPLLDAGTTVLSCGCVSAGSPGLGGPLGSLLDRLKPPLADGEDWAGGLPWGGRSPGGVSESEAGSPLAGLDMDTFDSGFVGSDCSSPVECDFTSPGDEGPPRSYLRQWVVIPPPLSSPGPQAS
Procedure: as §1

[5] = target: T1, human gamma (γ) common chain expressed …; assay: cell-based ELISA on CHO cells transiently expressing human gamma common chain; HRP anti-human IgG, A450
Procedure: (§2) FIG. 6(a-l) depicts the binding of 21 anti-IL-21R IgGs to CHO cells transiently expressing human IL-21R (FIGS. 6a-c), rat IL-21R (FIGS. 6d-f), cynomolgus monkey IL-21R (FIGS. 6g-i), and human gamma common chain (FIGS. 6j-1). CHO cells were transiently transfected with IL-21R or the control gamma common chain, and binding was detected with HRP-conjugated anti-human IgG in a cell-based ELISA.
as §1

[6] = target: T3, cynomolgus monkey IL-21R expressed on …; assay: cell-based ELISA on CHO cells transiently expressing cynomolgus monkey IL-21R; HRP anti-human IgG, A450
Procedure: as §2, §1

[7] = target: murine IL-21R expressed on cells (murine, UniProt Q9JHX3 20-529); assay: cell-based or functional assay
murine IL-21R expressed on cells, sequence (Q9JHX3 20-529 limits assumed): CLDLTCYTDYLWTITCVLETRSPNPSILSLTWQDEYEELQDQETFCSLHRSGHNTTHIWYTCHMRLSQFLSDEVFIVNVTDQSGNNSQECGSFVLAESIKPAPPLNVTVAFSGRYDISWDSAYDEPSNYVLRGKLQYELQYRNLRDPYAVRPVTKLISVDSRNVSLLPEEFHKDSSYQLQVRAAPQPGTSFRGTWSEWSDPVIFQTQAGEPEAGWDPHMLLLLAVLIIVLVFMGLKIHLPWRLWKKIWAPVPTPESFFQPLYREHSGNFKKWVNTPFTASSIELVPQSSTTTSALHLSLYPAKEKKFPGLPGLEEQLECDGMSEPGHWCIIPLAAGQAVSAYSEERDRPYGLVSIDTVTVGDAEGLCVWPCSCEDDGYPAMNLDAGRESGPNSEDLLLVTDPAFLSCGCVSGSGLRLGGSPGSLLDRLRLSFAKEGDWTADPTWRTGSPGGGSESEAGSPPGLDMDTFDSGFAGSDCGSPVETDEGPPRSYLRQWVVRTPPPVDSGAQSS

[8] = target: T5, human IL-21R expressed on cells; assay: cell-based or functional assay
human IL-13-His/FLAG = target: T6, human IL-13-His/FLAG (human, UniProt P35225 35-146, limits assumed); assay: SPR, Ab captured
T6 construct: Unrelated His/FLAG-tagged control; also called human IL-13-H/F
T6 sequence (P35225 35-146 limits assumed): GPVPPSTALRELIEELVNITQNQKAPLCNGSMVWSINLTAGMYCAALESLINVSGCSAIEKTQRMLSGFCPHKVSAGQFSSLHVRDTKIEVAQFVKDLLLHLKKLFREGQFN
Procedure: (§3) The specificity of binding of a subset of transiently expressed anti-IL-21R binding proteins (here antibodies) was tested on a BIACORE™ 2000 surface plasmon resonance instrument. Anti-human-IgG, anti-murine immunoglobulin antibodies, and murine IL-21R-H/F were immobilized onto a research-grade carboxymethyl-dextran chip (CM5) using standard amine coupling. The sensor chip surface was activated with EDC/NHS for 7 min at a flow rate of 20 μl/min. The first flow cell was used as reference surface to correct for bulk refractive index, matrix effects, and nonspecific binding. […] Remaining activated groups were blocked with 1.0 M ethanolamine (pH 8.0). The molecular weights of the anti-human IgG and the anti-murine IgG were both 150 kD, and the molecular weight of the IL-21R monomer was 27 kD.
(§4) Conditioned media containing anti-IL-21R antibodies and antibody controls (murine anti-human IL-2Rβ and murine anti-human IL-4R(R&D Systems, Minneapolis, Minn.); human anti-human IL-13 (Wyeth, Cambridge, Mass.)) were diluted in HBS/EP buffer supplemented with 0.2% bovine serum and injected onto all four flow cells of the BIACORE™ chip, capturing 500-700 (RU) of antibody on the species-appropriate capture antibody. Following a 5 sec washing period, 50 nM solutions of a positive control protein (murine IL-21R-H/F), two human proteins related to IL-21R (human IL-2Rβ and human sIL-4R(R&D Systems)), or an unrelated His/FLAG-tagged protein (human IL-13-H/F) were injected over the captured antibodies on the chip. The association and dissociation phases were monitored for 120 and 180 sec, respectively, followed by two 5 μl injections of glycine (pH 1.5) to regenerate a fully active capturing surface. All binding experiments were done at 25° C. in HBS/EP buffer. Blank and buffer effects were subtracted for each sensorgram using double referencing.

human soluble IL-4R = target: T7, human soluble IL-4R (human, UniProt P24394 26-232, limits assumed); assay: SPR, Ab captured
T7 construct: also called human sIL-4R
Procedure: as §3, §4

human IL-2Rβ = target: T2, human IL-2Rβ; assay: SPR, Ab captured
Procedure: as §3, §4

[9] = target: T5, human IL-21R expressed on cells; assay: cell-based ELISA on CHO cells transiently expressing human IL-21R; HRP anti-human IgG, A450
Procedure: as §2, §1

[10] = target: T4, rat IL-21R expressed on cells; assay: cell-based ELISA on CHO cells transiently expressing rat IL-21R; HRP anti-human IgG, A450
Procedure: as §2, §1

Row | A450 (13 nM Ab) [1] [A450] | A450 (13 nM Ab) [2] [A450] | A450 (13 nM Ab) [3] [A450] | A450 (13 nM Ab) [4] [A450] | binding result [5] | EC50 (read off the curve) [6] [nM] | Murine IL-21R-BaF3 Proliferation IC50 [7] [nM] | Human IL-21R-BaF3 Proliferation IC50 [8] [nM] | Human IL-21R-TF1 Proliferation IC50 [8] [nM] | binding result (human IL-13-His/FLAG) | binding result (human soluble IL-4R) | binding result (human IL-2Rβ) | EC50 (read off the curve) [9] [nM] | EC50 (read off the curve) [10] [nM] | Binder
1 | 0.108 | 1.3 | 1.11 | 1.35 | no binding (tested: 40 nM) | ~0.5 | 0.07 | 0.77 | 3.84 | no binding (tested: 50 nM) | no binding (tested: 50 nM) | no binding (tested: 50 nM) | ~0.5 | ~0.9 | AbG (antibody, IgG1, V domains shown, As for AbA: IgG1/lambda, CDR3 graft, residue limits derived; also called VHP/VL18) VH: QVQLQESGPGLVKPSETLSLTCAVSGYSISSGYYWGWIRQPPGKGLEWIGSISHTGNTYYNPPLKSRVTISVDTSKNQFSLKLSSVTAADTAVYYCARGGGISRPEYWGQGTLVTVSS VL: SSELTQDPAVSVALGQTVRITCQGDSLRTYYASWYQQKPGQAPVLVIYGKHKRPSGIPDRFSGSSSGNTASLTITGAQAEDEADYYCVTRSVKGNPHVLFGGGTQLTVL
2 | 0.108 | 1.34 | 1.18 | 1.36 | no binding (tested: 40 nM) | ~2 | 0.079 | 0.98 | 4 | no binding (tested: 50 nM) | no binding (tested: 50 nM) | no binding (tested: 50 nM) |  | ~1 | AbK (antibody, IgG1, V domains shown, As for AbA: IgG1/lambda, CDR3 graft, residue limits derived; also called VH3/VL3) VH: QVQLQESGPGLVKPSETLSLTCAVSGYSISSGYYWGWIRQPPGKGLEWIGSISHTGNTYYNPPLKSRVTISVDTSKNQFSLKLSSVTAADTAVYYCARFMGFGRPEYWGQGTLVTVSS VL: SSELTQDPAVSVALGQTVRITCQGDSLRTYYASWYQQKPGQAPVLVIYGKHKRPSGIPDRFSGSSSGNTASLTITGAQAEDEADYYCVSRAVVGNPHVLFGGGTQLTVL
3 | 0.111 | 1.35 | 1.12 | 1.2 | no binding (tested: 40 nM) | ~0.5 | 0.08 | 0.97 | 3.8 | no binding (tested: 50 nM) | no binding (tested: 50 nM) | no binding (tested: 50 nM) | ~0.5 | ~0.8 | AbA (antibody, V domains shown, Human IgG1/lambda, transiently expressed; also called VHP/VL2) VH: QVQLQESGPGLVKPSETLSLTCAVSGYSISSGYYWGWIRQPPGKGLEWIGSISHTGNTYYNPPLKSRVTISVDTSKNQFSLKLSSVTAADTAVYYCARGGGISRPEYWGQGTLVTVSS VL: SSELTQDPAVSVALGQTVRITCQGDSLRTYYASWYQQKPGQAPVLVIYGKHKRPSGIPDRFSGSSSGNTASLTITGAQAEDEADYYCVARSVVGNPHVLFGGGTQLTVL
4 | 0.137 | 1.28 | 0.999 | 1.22 | no binding (tested: 40 nM) | ~2 | 0.03 | 0.82 | 3.36 | no binding (tested: 50 nM) | no binding (tested: 50 nM) | no binding (tested: 50 nM) | ~0.7 | ~1 | AbC (antibody, IgG1, V domains shown, As for AbA: IgG1/lambda, CDR3 graft, residue limits derived; also called VHP/VL11) VH: QVQLQESGPGLVKPSETLSLTCAVSGYSISSGYYWGWIRQPPGKGLEWIGSISHTGNTYYNPPLKSRVTISVDTSKNQFSLKLSSVTAADTAVYYCARGGGISRPEYWGQGTLVTVSS VL: SSELTQDPAVSVALGQTVRITCQGDSLRTYYASWYQQKPGQAPVLVIYGKHKRPSGIPDRFSGSSSGNTASLTITGAQAEDEADYYCSSRSRHGNPHVLFGGGTQLTVL
5 | 0.107 | 1.33 | 1.09 | 1.15 | no binding (tested: 40 nM) | ~0.6 | 0.421 | 1.14 | 3.34 | no binding (tested: 50 nM) | no binding (tested: 50 nM) | no binding (tested: 50 nM) | ~1 | ~2 | AbB (antibody, IgG1, V domains shown, As for AbA: IgG1/lambda, CDR3 graft, residue limits derived; also called VHP/VL3) VH: QVQLQESGPGLVKPSETLSLTCAVSGYSISSGYYWGWIRQPPGKGLEWIGSISHTGNTYYNPPLKSRVTISVDTSKNQFSLKLSSVTAADTAVYYCARGGGISRPEYWGQGTLVTVSS VL: SSELTQDPAVSVALGQTVRITCQGDSLRTYYASWYQQKPGQAPVLVIYGKHKRPSGIPDRFSGSSSGNTASLTITGAQAEDEADYYCVSRAVVGNPHVLFGGGTQLTVL
